Reference: paper PMC3141245

Columns and labels:
DB-JBP1 D536A = DB-JBP1 D536A (Leishmania tarentolae, UniProt Q9U6M1 382-561, D536A); test: SPR
DB-JBP1 D525A = DB-JBP1 D525A (Leishmania tarentolae, UniProt Q9U6M1 382-561, D525A); test: SPR
DB-JBP1 K436A = DB-JBP1 K436A (Leishmania tarentolae, UniProt Q9U6M1 382-561, K436A); test: fluorescence anisotropy
DB-JBP1 K535A = DB-JBP1 K535A (Leishmania tarentolae, UniProt Q9U6M1 382-561, K535A); test: fluorescence anisotropy
JBP1 D525A = JBP1 D525A (UniProt Q9U6M1 1-827, D525A); test: fluorescence anisotropy

B1: VSG J-DNA 14-mer, biotin (dsDNA)
DNA 1: GGCAGCTGCAACAA
DNA 2: TTGTTGCAGCTGCC
modifications: base J replaces T7 of strand 1
- binding result (DB-JBP1 D536A): binds
- binding result (DB-JBP1 D525A): no binding

B2: VSG J-DNA 14-mer (dsDNA)
DNA 1: GGCAGCTGCAACAA
DNA 2: TTGTTGCAGCTGCC
modifications: base J (beta-D-glucosyl-hydroxymethyluracil) replaces T7 of strand 1
- binding result (DB-JBP1 K436A): binds
- binding result (DB-JBP1 K535A): binds

B3: VSG T-DNA 14-mer (dsDNA)
DNA 1: GGCAGCTGCAACAA
DNA 2: TTGTTGCAGCTGCC
- Kd (JBP1 D525A): 11.7 µM
